Laboratory results published in paper doi:10.1101/2022.12.23.521429v4.

System: Nc1ncnc2c1ncn2[C@@H]1O[C@H](COP(=O)(O)OP(=O)(O)OP(=O)(O)O)[C@@H](O)[C@H]1O
Experiment: kinase activity assay
Type: biochemical, Homo sapiens
Details: co-substrate and buffer of the KM determination not told

DYRK1B kinase domain (78-442) (Homo sapiens)
Km: 105 µM
